The numbers were not newly measured in paper PMC3601411, which cites them from elsewhere.

This data set deals with Fibrinogen gamma chain C-terminal region (Homo sapiens) (UniProt P02679). The experiment in a line: isothermal calorimetry.

For the substance “Clumping factor A (ClfA) 229-545 (from UniProt Q2G015)”, the Kd is 657 nM.
